Patent US20090098124A1 (MacroGenics, published 2009)
Read-outs that look alike come from different tables or passages of the source.

Assays:
[1] = molecular target: soluble FcγRIIIA 158F (human) (UniProt P08637); test: SPR (BIAcore) steady-state analysis, ch4D5 antibody captured on immobilised ErbB2/Fc-aglycosyl chimera, soluble FcγRIIIA F158 (printed 3aF150) injected at 0.2-[…]
[2] = molecular target: soluble FcγRIIIA 158V (human) (UniProt P08637); test: SPR (BIAcore) steady-state analysis, ch4D5 antibody captured on immobilised ErbB2/Fc-aglycosyl chimera, soluble FcγRIIIA V158 (printed 3aV150) injected at 0.1-[…]
[3] = molecular target: soluble dimeric FcγRIIB (extracellular domain fused to hinge-CH2-CH3 of human IgG2) (human) (UniProt P31994); test: ELISA
Sequence of soluble dimeric FcγRIIB (extracellular domain fused to hinge-CH2-CH3 of human IgG2) (human) (P31994 43-217): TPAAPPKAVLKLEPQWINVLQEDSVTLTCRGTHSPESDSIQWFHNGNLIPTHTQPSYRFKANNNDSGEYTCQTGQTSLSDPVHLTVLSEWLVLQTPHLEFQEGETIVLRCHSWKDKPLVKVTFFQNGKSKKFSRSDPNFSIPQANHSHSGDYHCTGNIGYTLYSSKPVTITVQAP

[4] = molecular target: soluble monomeric FcγRIIIA (extracellular region joined to linker-AVITAG), allele not stated (human) (UniProt P08637); test: ELISA
Sequence of soluble monomeric FcγRIIIA (extracellular region joined to linker-AVITAG), allele not stated (human) (P08637 17-208): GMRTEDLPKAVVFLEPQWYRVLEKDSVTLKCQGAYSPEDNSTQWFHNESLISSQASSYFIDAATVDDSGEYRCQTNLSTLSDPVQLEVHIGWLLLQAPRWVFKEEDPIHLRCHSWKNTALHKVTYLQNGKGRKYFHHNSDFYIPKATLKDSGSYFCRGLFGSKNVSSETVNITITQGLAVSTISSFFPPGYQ

[5] = molecular target: soluble dimeric FcγRIIB (extracellular domain fused to hinge-CH2-CH3 of human IgG2) (human) (UniProt P31994); test: SPR
[6] = molecular target: soluble monomeric FcγRIIIA (extracellular region joined to linker-AVITAG), allele not stated (human) (UniProt P08637); test: SPR
[7] = molecular target: soluble monomeric FcγRIIIA (extracellular region joined to linker-AVITAG), allele not stated (human) (UniProt P08637); test: SPR; remark: listed apart in the source
[8] = molecular target: soluble dimeric FcγRIIB (extracellular domain fused to hinge-CH2-CH3 of human IgG2) (human) (UniProt P31994); test: SPR; remark: listed apart in the source

Sequence of soluble FcγRIIIA 158F (human) (P08637 17-208): as above

Row | Kd [1] | Kd [2] | ELISA OD [3] | ELISA IIIA binding [4] | ELISA OD [4] | Kd [5] | Kd [6] | Kd [7] | Kd [8] | Substance
1 | 1540 nM | 36 µM | – | – | – | – | – | – | – | ch4D5 wild type (IgG1) (antibody)
2 | – | – | 0.4 OD | 1 fold | 0.5 OD | 94 nM | 198 nM | 319 nM | 61.4 nM | ch4-4-20 wild type (antibody)
